{"source": "patent US20170360931A1", "about": "(UNIVERSITY OF CHICAGO, published 2017)", "assay_in_all_cases": "cell-based or functional assay", "key": {"[1]": {"target": "HA of wild type A/Shanghai/1/2013 (H7N9) virus (influenza A virus A/Shanghai/1/2013 …)"}, "[2]": {"target": "HA of A/chicken/Jalisco/12283/12 (H7N3) virus (influenza A virus …)"}, "[3]": {"target": "HA of A/California/04/2009 (H1N1) virus (influenza A virus A/California/04/2009 …)"}}}
{"binder": "045-051310-2B06 (antibody, V domains shown) VH: QVQLVQSGPEMKKPGASVKVSCKTSGYRFTRYGISWVRQAPGRGLEWLGWISAYSGDTYYGQKFQDRVTMTTDRATSTAYMELRNLGSDDSAVYFCARDHVQGEVSIYYYAMDVWGEGTTVTVSS VL: EIVLTQSPATLSLSPGERVTLSCRASESVGNKLAWFQQRPGQAPRLLIYNASNRATDIPARFSGSGSGTDFTLTISSLQPEDFAVYYCQQRGTWPRGLITFGQGTRLEIK", "values": [{"measurement": "PRNT50 (plaque reduction assay)", "setting": "[1]", "value": 19, "unit": "µg/mL"}, {"measurement": "PRNT50 (plaque reduction assay)", "setting": "[2]", "value": 18, "unit": "µg/mL"}, {"measurement": "PRNT50 (plaque reduction assay)", "setting": "[3]", "value": 5.5, "unit": "µg/mL"}]}
